From article doi:10.1101/2021.12.02.470928 come the findings set out here.

As usually defined, the Kd is the constant that tells how readily two partners part at equilibrium. Lower therefore signals tighter binding.

What all share (assay): BLI
Background: BLI is a label-free optical method that tracks binding on a fibre tip over time.

The target in test [1] is biotinylated MYC(1-88 Y22A).
The target in test [2] is biotinylated MYC(1-88 Y24A).
Test [3] addresses biotinylated MYC(1-88 F23A).
Test [4] deals with biotinyl-MB0 peptide (MYC 16-33) (UniProt P01106).
Test [5] has as its target biotinylated MYC(1-88 P21A).
Test [6] has as its target biotinylated MYC(1-88ΔMB0) (UniProt P01106).

B1: PNUTS(1-148), PNUTS amino-terminal domain (PAD) (domain or fragment)
chain: MGSGPIDPKELLKGLDSFLNRDGEVKSVDGISKIFSLMKEARKMVSRCTYLNILLQTRSPEILVKFIDVGGYKLLNNWLTYSKTTNNIPLLQQILLTLQHLPLTVDHLKQNNTAKLVKQLSKSSEDEELRKLASVLVSDWMAVIRSQS
Consider B1, for which the fold weakening of KD against wild-type MYC(1-88) in test [1], in test [2], in test [3] and in test [5] was above 5 fold throughout. For the same molecule, the Kd was 9.4 µM in test [4] and above 100 µM in test [6].
